The IC50 is the concentration that inhibits the measured activity by half. High values mean weaker potency in that assay, low ones greater potency in that assay.

In patent US20260152573A1 one finds IC50, % max occupancy and IC50 (read off the curve) data, which are given here for 1 substance.

In assay [1] the target is FcRn-L322A/L323A expressed in HEK293 cells (human) (UniProt P55899). Briefly: FcRn occupancy, FACS, HEK293-FcRn-mut cells, without albumin.
Assay [2] concerns the target FcRn (cells of the occupancy assay not stated) (UniProt P55899). Briefly: FcRn occupancy assay, cells not given.
In assay [3] the target is FcRn-L322A/L323A expressed in HEK293 cells (human) (UniProt P55899). Briefly: FcRn occupancy, FACS, HEK293-FcRn-mut cells, with albumin.
In assay [4] the target is neonatal Fc receptor (FcRn), endogenous in U937 cells (human) (UniProt P55899). The assay can be described thus: FcRn occupancy, FACS, U937 cells, with albumin.
Assay [5] shares this target. Briefly: cell-based FcRn occupancy assay on U937 cells, flow cytometry; free FcRn stained with anti-FcRn-Fab AF647.

Sequence of neonatal Fc receptor (FcRn), endogenous in U937 cells (human) (P55899 24-365 limits assumed, chain 1 of 2): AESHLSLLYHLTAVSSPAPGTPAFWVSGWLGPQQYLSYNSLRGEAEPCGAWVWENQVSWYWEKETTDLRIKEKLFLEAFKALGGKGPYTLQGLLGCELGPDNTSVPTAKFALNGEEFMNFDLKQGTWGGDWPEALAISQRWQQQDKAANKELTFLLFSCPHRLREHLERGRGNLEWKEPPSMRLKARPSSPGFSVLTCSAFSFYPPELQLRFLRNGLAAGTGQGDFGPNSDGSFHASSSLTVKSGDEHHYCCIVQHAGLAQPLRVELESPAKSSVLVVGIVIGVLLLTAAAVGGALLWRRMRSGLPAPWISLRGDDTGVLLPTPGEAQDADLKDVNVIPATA
Sequence of neonatal Fc receptor (FcRn), endogenous in U937 cells (human) (chain, as listed by the source limits assumed, chain 2 of 2): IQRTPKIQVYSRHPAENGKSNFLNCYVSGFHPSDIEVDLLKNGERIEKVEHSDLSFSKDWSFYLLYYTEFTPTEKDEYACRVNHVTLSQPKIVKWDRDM

In the case of efgartigimod, the IC50 in assay [1] is 6.8 nM; in assay [2] it was 6 nM; in assay [3], 16.1 nM; in assay [4], 4.8 nM. Also, the results for the % max occupancy in assay [3] and in assay [4] were 57.7% and 56.8%, respectively. This substance also displayed an IC50 (read off the curve) in assay [5] of 0.3 nM.
